{"source": "patent US20210403593A1", "about": "(TIZONA THERAPEUTICS, published 2021)", "binders": {"B1": {"name": "31901 (antibody, human IgG4 S228P, kappa, V domains shown)", "VH": "QVQLVQSGAEVKKPGSSVKVSCKASGGTFSSLPISWVRQAPGQGLEWMGGIGFGTANYAQKFQGRVTITADESTSTAYMELSSLRSEDTAVYYCARGGAKYAGRYGMDVWGQGTTVTVSS", "VL": "not shown"}, "B2": {"name": "31905 (antibody, human IgG4 S228P, kappa, V domains shown)", "VH": "B1 VH with S30P, L32N, P33A, G103R, R104T", "VL": "not shown"}}, "key": {"Chimera #4": {"molecular_target": "T1, Chimera #4 (Homo sapiens (Human), UniProt P49961 1-510)", "T1 construct": "Expressed on CHO cells", "T1 chain": "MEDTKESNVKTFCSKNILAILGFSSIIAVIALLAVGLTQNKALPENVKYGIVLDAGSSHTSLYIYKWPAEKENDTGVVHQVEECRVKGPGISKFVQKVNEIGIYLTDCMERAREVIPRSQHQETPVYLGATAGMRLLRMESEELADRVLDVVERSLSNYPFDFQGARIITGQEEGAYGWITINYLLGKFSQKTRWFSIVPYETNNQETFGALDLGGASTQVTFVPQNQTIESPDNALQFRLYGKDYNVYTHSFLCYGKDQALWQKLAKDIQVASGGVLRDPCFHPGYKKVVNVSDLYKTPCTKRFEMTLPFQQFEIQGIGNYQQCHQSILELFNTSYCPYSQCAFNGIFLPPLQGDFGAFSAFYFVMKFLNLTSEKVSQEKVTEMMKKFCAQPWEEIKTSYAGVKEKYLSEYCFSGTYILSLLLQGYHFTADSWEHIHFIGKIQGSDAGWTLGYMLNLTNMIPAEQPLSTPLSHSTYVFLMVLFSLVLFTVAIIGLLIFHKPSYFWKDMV", "assay": "FACS on CHO cells, 15 ug/ml; human M1-S274 + mouse GGV + human L278-V510", "protocol": "(§1) The chimeras were expressed in CHO cells and the ability of anti-human CD39 antibodies to bind the chimeras tested via FACS. In brief, cells were washed and blocked in FACS buffer (PBS/2% FBS) for 30 min on ice. […] After 2 washes, cells were resuspended in FACS buffer and analyzed on BD Fortessa. Data was processed with FlowJo."}, "human CD39 (cellular)": {"molecular_target": "T2, human CD39 (cellular) (human, UniProt P49961 1-510)", "T2 construct": "Same protein on engineered CHO cells and on cells that express it endogenously; also called hCD39; cellular CD39", "T2 sequence": "T1 chain with G275N, G276E, V277I", "assay": "flow cytometry, 100 nM IgG, MFI on CHO-hCD39 / MFI on parental CHO;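 further: cells exposed to IgG for 30 min on ice in PBS, bound antibody then revealed with a fluorescent goat anti-human IgG secondary (20 min, on ice)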", "protocol": "100 nanomolar IgGs (each antibody is indicated as a unique clone number in the FIG.) were incubated at 25° C. for 30 minutes on ice in phosphate buffered saline (PBS) with parental CHO cells or CHO cells engineered to express either human or cynomolgus macaque (Macaca fascicularis) CD39 (CHO CD39 cells). Cells were then washed with ice cold PBS and incubated with a fluorescently labeled goat-anti-human IgG for 20 minutes on ice. Cells were washed and resuspended in ice cold PBS prior to analysis by flow cytometry."}, "Chimera #13": {"molecular_target": "T3, Chimera #13 (Homo sapiens (Human), UniProt P49961 1-510)", "T3 construct": "Expressed on CHO cells", "T3 sequence": "T1 chain with N99D, R154T, G275N, G276E, V277I", "assay": "FACS on CHO cells; human CD39 with mouse D99 and T154", "protocol": "as §1"}}, "note": "Changes are numbered by the printed parent chain."}
{"binder": "B1", "values": [{"measurement": "binding result", "setting": "Chimera #4", "value": "binds"}, {"measurement": "Cell Binding (FOB)", "setting": "human CD39 (cellular)", "value": 1110, "unit": "fold over background"}, {"measurement": "binding result", "setting": "Chimera #13", "value": "no binding (tested: 15 ug/ml)"}]}
{"binder": "B2", "values": [{"measurement": "binding result", "setting": "Chimera #4", "value": "binds"}, {"measurement": "Cell Binding (FOB)", "setting": "human CD39 (cellular)", "value": 1080, "unit": "fold over background"}, {"measurement": "binding result", "setting": "Chimera #13", "value": "no binding (tested: 15 ug/ml)"}]}
